Source: a protein production outcome set (Wang et al. 2014)

Assay: label from the status in PepcDB records
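Further: failed if final PepcDB status was selected cloned or expressed and not failed if soluble or beyond.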

Row | Sequence | protein production
1 | MARKKITLVGAGNIGGTLAHLALIKQLGDVVLFDIAQGMPNGKALDLLQTCPIEGVDFKVRGTNDYKDLENSDVVIVTAGVPRKPGMSRDDLLGINIKVMQTVGEGIKHNCPNAFVICITNPLDIMVNMLQKFSGVPDNKIVGMAGVLDSARFRTFLADELNVSVQQVQAYVMGGHGDTMVPLTKMSNVAGVSLEQLVKEGKLKQERLDAIVSRTRSGGGEIVALLKTGSAYYAPAAAGIQMAESFLKDKKMILPCAAKVKAGMYGLDEDLFVGVPTEISANGVRPIEVEISDKEREQLQVSINAIKDLNKAAAEILAK | not failed
2 | MFEVTVSKRLLKSGIIVSAMTLISRVLGLVRDVVVANLMGAGASADVFFFANRIPNFLRRLFAEGAFSQAFVPVLTEYHASGDINKTRDLIARASGTLGVLVTIVTLIGVLGSGAVTALFGAGWFLDWLNGGPAAGKFELASLLLKITFPYLWFITFVALSGAILNTLGKFAVSSFTPVFLNVMMILCAWYLSPNLEQPEVGLAIGVFLGGLVQFLFQLPFLIKAGVLVRPKWGWKDPGVVKIRTLMIPALFGVSVSQINLLFDSFVASFLQTGSISWLYYSDRLLEFPLGLFGIAIATVILPALSRKHVDAHSDGFAHTMDWGIRMVTFLGIPAMLGLMVLAKPMLMVLFMRGEFTPSDVEQASYSLLAYSSGLLSFMLIKVLAPGYYSRQDTKTPVRYGIIAMVSNIVLNAIFAWFYGYVGLAVATSMSAFLNMALLYRGLHLQGVYHLTRKTVWFVARLAMAGAVMTGALLWQLDTMATWLSWGISQRALTLTGLIGLGVASYLAILLLLGVRLKDLKAATE | failed
3 | STQTDKALYNRLVPLVNGVREFSEIQLSRLKKLGIHKTDPSTLTEEEVRKFARLNIDPATITWQ | not failed
4 | ASDFQTGIHKIVIQQSGDTDSFEVSVSIGGADKGGPAKLYNDKGEYIGDSYSAQIRTATMSCCTNGNAFFMTCAGSVSSISEAGKRLHITVIGYIDDKEVNRLEKEYITDGNTLIETFSVSTKEI | not failed
5 | MAEHAPHFTITPLGGLGEIGLNCQVWSTADSTVLIDCGLMFPDDYHLGVDVVIPRFDHILQQRDKVRGIILTHGHEDHIGALPWLVPHLRGIPIFGSRFTLALVEHKLREHGLADRVEFVPVTPGTPLALGDMTFHFLPVCHSIIEGYAVGVETPVGRVLHTGDFKIDPHPLEGSGTDLDLFRSFAGDEGVRLLLSDSTNIEREGHSLPEREILSSFRHIFTEAQGRIVITLFSSHIQRIQEVFDLAAEFGRTVVVSGRSLMTNIELAREHGFLRVPPALHMDAAGLPPVADRDMVLLVTGSQGEPLSALSRITMGEHKHLTIHEGDTVVMSSRIIPGNARAITRLINQIYRLGAEVYYDKFRAIHASGHAHRDELRAMIETMRPQCFVPVHGEYRHLVKHARLAQECGVAPERAFILENGDPLTLLPQGVRLGERIHVESILVDGKGVGDVGHSVLKERHILGGEGMVIVVLVVDEVTWDVLHGPEMLSKGFVFEQHYNHVLEDAKCIVLDIFENIPPGETERLQDRIRSALRRFFRKVLERDPIVVPVITTI | failed
6 | MWKRMTAKAEGLYIADTKSFVTKQMDKLDFDYGGIPGDLHFGLTKKAGAREPMFSRGTEIFNRRQISIVSIEECNEIALKMGVPRILPEWLGANVAVSGMPDLTSLKEGSRIIFPSGAALLCEGENDPCIQPGEVIQSYYPDQPKLASAFVRHALGIRGIVCIVERPGAVYTGDEIEVHSYQRKVKRKAERV | not failed
7 | MVSIIIPIYNVQDYINDCLYSVYTQTYSEIEVILVNDCTPDNSMLIAHSNIEKLKKRFNVKIIDHKSNKGLSAARNSGVKEATGEWVYFLDSDDEITPDCIECFVRLAERYLSVDFIVGGIRVIGRNISYRLTTSEYVIGNDNILKCYISGMWYEMAWNKLIRKEYFVSNNLWFKEGLLHEDQLFSYQLATTALTMATVNKPTYIYKMRMSGAITSSNGRKNFDSFICILEYMVYSVMQKYSTSSVTLEYAQIIRFSYSILLSLYGKHNLTEMEVVNYELKVDRICRIVTFYKCKLPVPIQIKLTIIKLPQTMRKVLLKWHNKKIQKKLEHHHHHH | not failed
8 | EQEDKVSGEKTLAVVSASSDDRPSTRGIINDNTYALGVFRTTANTYAPLYNVKHIYSGGEWGADDVIKVDYRNASFFAYYPYHTATGNYAGLAGGTTLTLQAQLFNAGEDICYGAGEASGGGPVSVYNPFVEFLNMKHAYARLRLTLTRGEKFDKTKKCNIQNITFKSNNANFYLTRSLDIASTAGATGGSAVAAGYVHNPNVNIATGKSVTYEYMFPPQPLDGSKLTILVTVDGVTRSCDISTLGSSLDSGKYYGVSLTFTDVGIILSSAVVTVNNFGGQGNTQVDTEL | not failed
9 | MTRQRNREGLEFTAANAQAVEAFDETVKRYLQFHGDIGGALKATFAHDAQMPMALILRGYFYLLMGLRPLADKAAQLAAGLQPGRAALTEREQRHLDALACWSRDSLQAATEHWERIARAHPRDILAVKMAHFGYFYLGRSARIRDGIAQAIDSWSEDDALYPYMLSMMAFGQVEAGELARGEASGRRALELTPHDPWAVHAVAHALEPTDRKADALAWIARHERHWSEANNFRHHIHWHRALIHLEQGDAQAALDWYDRTVFAADSVEYLDVCNEASLLMRLELSGVDVGRRWEAVAQKSAARIDDQVMGFADVHYAMALCSSANPEHRQQAQALAERLERYSQGGTDNAQAYRQAVVPIVGALLAFRQGRYRESADALLACADVAHAAGGSHDQRDVYEYLTAEALFRAAPAHPDTIAYLARRSFRAPHNPHNWRLYLQSLEQSGQDRTLAAATARRQAAAHATA | failed
10 | DEIFCRVYMPDHSYVTIRSRLSASVQDILGSVTEKLQYSEEPAGREDSLILVAVSSSGEKVLLQPTEDCVFTALGINSHLFACTRDSYEALVPLPEEIQVSPGDTEI | not failed
11 | MKMTVVGFWGGFPEAGEATSGYLFEHDGFRLLVDCGSGVLAQLQKYITPSDIDAVVLSHYHHDHVADIGVLQYARLITSATKGQLPELPIYGHTFDENGFHSLTHEPHTKGIPYNPEETLQIGPFSISFLKTVHPVTCFAMRITAGNDIVVYSADSSYIPEFIPFTKDADLFICECNMYAHQEAAKAGHMNSTEVASIAKDANVKELLLTHLPHTGNPADLVTEAKQIFSGHITLAHSGYVWNS | not failed
12 | MANIEYDPERQLFHLHNDTFSYVIQVIRGYLVKRYCGPALDHFSGTAKLEDFSHAFNIQNDAAPYSLTTLPLEYSTLMGGDYRTPAYAVRNGHGQLIGNLKFDHYQILAGNESFNGTLPTARTPHGQTLIITMHDETQTLAVRLKYTIVGDLPVLLKQVEYRNLTDTTLTITHAASLQLDFDDHAYDLITLTGAHLNEAKVTRQPLTPGKKSIGSNYGASGPQGVPATILAAPATNEFAGEALGVTLLWSGNFNYTAQVDQFDNSRLVMGLNPELFAWQLKPGKPFVTPEAAVAYTNDGLNDLSRIFHRFFADHVMPLPRKNLIEYNTWETTYFDVSEAKILAEIPKAEELGVELLVIDDGWFKNRPNDAGQLGDWVPDPAKFPHGLRPVADAIHARGLAFGLWVEPEMISENSELYATHPDWAMQYVGQKPLRSRNQLILDLSQRIVQDHLITVLTNLVRDNHIDYLKWDYNRHFSQPGSPVLPPDQQGEVGYRYTRGLYRVLKTLRDTFPKLLIENCSSGGGRLDGGMIAYTDQTWTSDFTDPVYRMKIMNGFSLFFPLKIFVSHFTASPNLQDARLTPLHTRALLSLVGITGIECPPSQLSPAEAAAVKASFAFYKANRKELQNGLLFRLQPSHVNQDEVCWLITNAAKTKALVLTSVGVTSPIPHYQHVLLHYLDPKLSYQIDNTKNATGLELNHAGVTLPLAHGDFSATLMELTAVTNLPQPTAAPTLEHHHHHH | failed
13 | MNFIRIVKFDFKNIIRNPMLLFFNTIFPLILIGSIGFVMKNGYGSFNVTSYDYYGVTMMIFTAFIICITASNTFMEKSVKKGNTRIVYAPVSKAEIYLSKIISTYILGSIFYSIIIVLGKYVLNINYGTRSTIYIIILINMLTLFGCCLGVLFCCIFKSEEGANSVLQIVIMLFIFFGGVFFPVYSLGKIVESISNLSPLKWITECIFRIIYDNDFSIYLPTIGVMLVSSIICIVICQIIFKPEEYV | failed
14 | MQSRSDGSWVLTLSRRLDAPSGEFAGVVLVTLQLKYFQNYYSTFEVGPHGTIGMTNDDGIVMVRRPDKQGVIGTSIAGTSIYVTMRARKHGTATYRSPIDRVERISSFAPARPYPLTVLTGFSVDDALANWRETARQRIVVAALGCTLLLGVGIWLDLQLRRMHRNEAKLSTEAWVDALTGIANRRAFDHRLSRALQDAVRLEAPLSVLMIDVDHFKLYNDTYGHVNGDACLRLIAGAIAGCSRRSEDLAARYGGEEFGMILPHTDAAGALRLADAVRNAVAELGLMHLSSPTSAHVTVSIGAATFEPGEAPLSPNAIVHDADSALYRAKQKGRNRTSA | failed
15 | RVTVMLAAFEGWNDAGEAASDALHYLNKLWDGKKVATVDAEEYYDFQFTRPTVRRTSSGARKVKWPSTRIYKAEVPDSNVDVVLVLGTEPSYRWRAYTTELLVHAEALKVDSVILVGALLADVPHSRPIPVSTTTEDSSLRERLNLEASQYEGPVGIVGVLAEFAMLAGLPTVSLWAAVPHYVAQPPSPKAQLAILHRIEDLLQVPLDSQALAEESEAWERGVDELATEDPEITAYVRQLEEAKDTADLPE | not failed
16 | MILTPLALTPDHDIPGPVLTELTALYASHRAFHALSGDFPDPEDIRPEQVATALADELARPGAEVLLARDAGRLVGVAVTLARHPDPSDPDPWIGLLMVDAGLTRQGHGSRLVSLVEDRFRAAGRTAVRLAVLDGNTDALSFWTALGYRVLDHRRDLGAERPCTVLRRELASDKPRTPRRAARVAVLDPEGAVFLLRYDNVEVGVHWAMPGGGLEADENPREGALREVREETGWTDLEPGPLLCTWEHDFTHLSVGPVRQYEHIYVAQGPRREPTGPHLAAAHAADGILTWRWWSRAELAEAPEPLWPPDLALLLETFGGREG | failed
17 | MTMDGDSSTTDASQLGISADYIGGSHYVIQPHDDTEDSMNDHEDTNGSKESFREQDIYLPIANVARIMKNAIPQTGKIAKDAKECVQECVSEFISFITSEASERCHQEKRKTINGEDILFAMSTLGFDSYVEPLKLYLQKFREAMKGEKGIGGAVTATDGLSEELTEEAFTNQLPAGLITTDGQQQNVMVYTTSYQQISGVQQIQFS | failed
18 | MDRFDAMRAFARVVETGSFTKAADTLHMSKTSVTQLVQQLEARLRVRLLNRTTRKVNATADGAAYYERVRQLLADLEDAETSLSGASATPGGRLRVDVPSPFASTILVPALPAFQARYPDILLHLGVSDREVDLIDENVDCVIRGGQIGNLSLAARHVGDLQLGVYASPGYLARAGVPAHPRELQDAQHRIIGFSWSRARRLFPCAMRRRADERIEVAGRHALLLDEGNAYLAAGLAAMGVIGVPTYMAEAHVERGALIRLFGDWRLDPMPLYIAYPQNRHVSAKLRVFIDWIVELMARHAPVTDAPPPHRSARMPGGPAAIPTDITGA | failed
19 | MPKTLIILAHPNISQSTVHKHWSDAVRQHTDRFTVHELYAVYPQGKIDVAAEQKLIETHDSLVWQFPIYWFNCPPLLKQWLDEVLTYGWAYGSKGKALKGRKIALAVSLGAPAADYRADGAVGCSVAEVLRPFELTAKYCNADYRPPFTFHTIDSNAGYSEAARQEVERSARDYLAWLDALQQTLEHHHHHH | not failed
